The values that follow are results of earlier work, collected in paper PMC13200438 (Journal of Nanobiotechnology, 2026).

For this series the following is noted: oral semaglutide (Rybelsus).

Take semaglutide: the “oral (absolute) bioavailability” value is on record as less than 2%.
